Data on 125 sequences can be found in the supplement of paper PMC9112550, “Optimization of the antimicrobial peptide Bac7 by deep mutational scanning” (BMC Biology, 2022).

This data set concerns Escherichia coli TOP10. In words: shrunken log2 fold change of peptide-encoding DNA abundance (4.5 h post-induction vs induction); higher = less antimicrobial activity (less host growth inhibition). Particulars: time post-induction: 4.5 h; library: site-saturation at positions 5, 18, 19, 20.
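Note: peptides expressed intracellularly from a pBAD plasmid library in pooled LB shake-flask culture, induced with 0.3% L-arabinose, DNA abundance read by NGS, three biological replicates, DESeq2 with apeglm shrinkage.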

With RRIRPRPPRLPRPRPRPNMCPRP, the “shrunken log2 fold change” value is -0.0958. With RRIRIRPPRLPRPRPRPADYPRP, the “shrunken log2 fold change” value was -0.635. On to RRIRLRPPRLPRPRPRPYMQPRP, for which the “shrunken log2 fold change” value was -0.297. For RRIRKRPPRLPRPRPRPTALPRP, the “shrunken log2 fold change” value was 0.213.

Take RRIRGRPPRLPRPRPRPIAWPRP: the “shrunken log2 fold change” value came out at 1.05. The value for RRIRVRPPRLPRPRPRPLNFPRP was -0.249; that for RRIRIRPPRLPRPRPRPGPEPRP was 0.342. Under RRIRLRPPRLPRPRPRPDNPPRP stands -0.231. For the sequence RRIRCRPPRLPRPRPRPWGAPRP, the “shrunken log2 fold change” value was 0.0457. Regarding RRIRPRPPRLPRPRPRPCVVPRP, the “shrunken log2 fold change” value was determined as 1.73. On to RRIRARPPRLPRPRPRPGYNPRP, for which the “shrunken log2 fold change” value was -0.403. As to RRIRWRPPRLPRPRPRPIIVPRP, the “shrunken log2 fold change” value is -0.138. RRIRTRPPRLPRPRPRPSVGPRP: the “shrunken log2 fold change” value is -0.055. As for RRIRWRPPRLPRPRPRPTDKPRP, the “shrunken log2 fold change” value is -0.0481. Regarding RRIRNRPPRLPRPRPRPEPYPRP, the “shrunken log2 fold change” value came to 0.0346.

In the case of RRIRCRPPRLPRPRPRPLEDPRP, the “shrunken log2 fold change” value came out at 0.0306. RRIRNRPPRLPRPRPRPPFIPRP: the “shrunken log2 fold change” value was -0.551. With RRIRMRPPRLPRPRPRPPSKPRP, the “shrunken log2 fold change” value came out at 0.557. Take RRIRQRPPRLPRPRPRPFHHPRP: the “shrunken log2 fold change” value is -0.0143. On to RRIRKRPPRLPRPRPRPMYRPRP, for which the “shrunken log2 fold change” value turned out to be 0.0629. Take RRIRARPPRLPRPRPRPWCRPRP: the “shrunken log2 fold change” value is 0.0486. Under RRIRWRPPRLPRPRPRPGCSPRP stands 0.551; under RRIRERPPRLPRPRPRPLELPRP, 0.086; under RRIRMRPPRLPRPRPRPNFLPRP, -0.0651. With RRIRGRPPRLPRPRPRPKTGPRP, the “shrunken log2 fold change” value was 0.692. With RRIRLRPPRLPRPRPRPLASPRP, the “shrunken log2 fold change” value was found to be 0.177. For the sequence RRIRMRPPRLPRPRPRPPYNPRP, the “shrunken log2 fold change” value was -0.575. Under RRIRKRPPRLPRPRPRPQEEPRP stands 0.0428; under RRIRGRPPRLPRPRPRPRWDPRP, 0.696; under RRIRERPPRLPRPRPRPMSYPRP, -0.00931.

Consider RRIRFRPPRLPRPRPRPRVVPRP, for which the “shrunken log2 fold change” value is 0.298. For RRIRGRPPRLPRPRPRPYWCPRP, the “shrunken log2 fold change” value is -0.0844. In the case of RRIRYRPPRLPRPRPRPRHVPRP, the “shrunken log2 fold change” value is -0.0478. Take RRIRDRPPRLPRPRPRPSFGPRP: the “shrunken log2 fold change” value is -0.0644. For the sequence RRIRDRPPRLPRPRPRPLRTPRP, the “shrunken log2 fold change” value came to 0.215. Regarding RRIRQRPPRLPRPRPRPIDNPRP, the “shrunken log2 fold change” value was -0.36.

RRIRTRPPRLPRPRPRPKMQPRP: the “shrunken log2 fold change” value turned out to be 0.384. RRIRARPPRLPRPRPRPCIYPRP: the “shrunken log2 fold change” value is -0.0979. Turning to RRIRPRPPRLPRPRPRPMYYPRP, the “shrunken log2 fold change” value is -0.631. The value for RRIRWRPPRLPRPRPRPCCYPRP was -0.295. In the case of RRIRCRPPRLPRPRPRPFQAPRP, the “shrunken log2 fold change” value turned out to be 0.0554. Turning to RRIRCRPPRLPRPRPRPASLPRP, the “shrunken log2 fold change” value was -0.234. Under RRIRRRPPRLPRPRPRPTWLPRP stands 0.633; under RRIRWRPPRLPRPRPRPQHLPRP, -0.678. As to RRIRFRPPRLPRPRPRPCGVPRP, the “shrunken log2 fold change” value was found to be 0.0327. With RRIRKRPPRLPRPRPRPQCVPRP, the “shrunken log2 fold change” value was found to be 0.117. As for RRIRLRPPRLPRPRPRPSSGPRP, the “shrunken log2 fold change” value was determined as 0.131. Under RRIRQRPPRLPRPRPRPEQPPRP stands 0.393; under RRIRVRPPRLPRPRPRPFVLPRP, -0.322. Under RRIRRRPPRLPRPRPRPKPFPRP stands 0.655; under RRIRRRPPRLPRPRPRPAGAPRP, 0.497; under RRIRQRPPRLPRPRPRPWWFPRP, -0.0566. With RRIRWRPPRLPRPRPRPDEDPRP, the “shrunken log2 fold change” value was 0.299. Take RRIRYRPPRLPRPRPRPLSKPRP: the “shrunken log2 fold change” value was -1.03. Regarding RRIRLRPPRLPRPRPRPPSLPRP, the “shrunken log2 fold change” value turned out to be 0.0267. As for RRIRCRPPRLPRPRPRPIWIPRP, the “shrunken log2 fold change” value was -0.291. Turning to RRIRQRPPRLPRPRPRPLNTPRP, the “shrunken log2 fold change” value is -0.937. As to RRIRARPPRLPRPRPRPKGEPRP, the “shrunken log2 fold change” value is 0.556. Take RRIRHRPPRLPRPRPRPFLIPRP: the “shrunken log2 fold change” value is -0.687. On to RRIRDRPPRLPRPRPRPWVIPRP, for which the “shrunken log2 fold change” value was -0.00136. Under RRIRVRPPRLPRPRPRPWISPRP stands -0.0628; under RRIRDRPPRLPRPRPRPNNVPRP, -0.243.

In the case of RRIRHRPPRLPRPRPRPFDGPRP, the “shrunken log2 fold change” value was -0.258. In the case of RRIRFRPPRLPRPRPRPFSCPRP, the “shrunken log2 fold change” value was -0.599. RRIRARPPRLPRPRPRPTDEPRP: the “shrunken log2 fold change” value was 0.594.

On to RRIRFRPPRLPRPRPRPMSSPRP, for which the “shrunken log2 fold change” value was -0.0482.

Regarding RRIRNRPPRLPRPRPRPSREPRP, the “shrunken log2 fold change” value is -0.103.

With RRIRTRPPRLPRPRPRPMMHPRP, the “shrunken log2 fold change” value was -0.302.

For RRIRTRPPRLPRPRPRPERSPRP, the “shrunken log2 fold change” value was 0.104. RRIRVRPPRLPRPRPRPIAEPRP: the “shrunken log2 fold change” value is 0.127. The value for RRIRERPPRLPRPRPRPSYKPRP was -1.27; that for RRIRDRPPRLPRPRPRPPVYPRP was -0.175. Consider RRIRDRPPRLPRPRPRPHLVPRP, for which the “shrunken log2 fold change” value was -0.0562. The value for RRIRYRPPRLPRPRPRPHVMPRP was -0.644; that for RRIRGRPPRLPRPRPRPQQHPRP was 0.232. Consider RRIRNRPPRLPRPRPRPNDQPRP, for which the “shrunken log2 fold change” value was -0.309. Consider RRIRQRPPRLPRPRPRPDEIPRP, for which the “shrunken log2 fold change” value is -0.00251. Consider RRIRCRPPRLPRPRPRPNSGPRP, for which the “shrunken log2 fold change” value was -0.224. Turning to RRIRDRPPRLPRPRPRPESYPRP, the “shrunken log2 fold change” value worked out at 0.0185. Under RRIRYRPPRLPRPRPRPHRGPRP stands -0.192; under RRIRPRPPRLPRPRPRPWIGPRP, -0.0305; under RRIRSRPPRLPRPRPRPSVEPRP, -0.0505.

For RRIRWRPPRLPRPRPRPAHHPRP, the “shrunken log2 fold change” value is -0.0193.

In the case of RRIRERPPRLPRPRPRPPNMPRP, the “shrunken log2 fold change” value is -0.251. RRIRWRPPRLPRPRPRPPWFPRP: the “shrunken log2 fold change” value amounted to 0.218.

As to RRIRTRPPRLPRPRPRPTNIPRP, the “shrunken log2 fold change” value is -0.519. Regarding RRIRRRPPRLPRPRPRPDDVPRP, the “shrunken log2 fold change” value is 0.0443. As to RRIRKRPPRLPRPRPRPSKPPRP, the “shrunken log2 fold change” value is 0.0859. As for RRIRLRPPRLPRPRPRPTSFPRP, the “shrunken log2 fold change” value is -0.0182.

RRIRPRPPRLPRPRPRPPHKPRP: the “shrunken log2 fold change” value turned out to be 0.452. RRIRFRPPRLPRPRPRPIEQPRP: the “shrunken log2 fold change” value was found to be 0.0187.

As for RRIRMRPPRLPRPRPRPPKNPRP, the “shrunken log2 fold change” value came out at 1.18.

Turning to RRIRMRPPRLPRPRPRPTQIPRP, the “shrunken log2 fold change” value came to 0.386. Under RRIRFRPPRLPRPRPRPVHMPRP stands -0.0472; under RRIRKRPPRLPRPRPRPCCRPRP, 0.146. As to RRIRVRPPRLPRPRPRPWGSPRP, the “shrunken log2 fold change” value was -0.137. For the sequence RRIRSRPPRLPRPRPRPTHVPRP, the “shrunken log2 fold change” value is -0.117.

Consider RRIRHRPPRLPRPRPRPSPMPRP, for which the “shrunken log2 fold change” value is -0.418.

Take RRIRSRPPRLPRPRPRPDYYPRP: the “shrunken log2 fold change” value is -0.831. RRIRLRPPRLPRPRPRPRWPPRP: the “shrunken log2 fold change” value came to 0.716. The value for RRIRSRPPRLPRPRPRPEKAPRP was -0.193; that for RRIRARPPRLPRPRPRPRHKPRP was 0.316; that for RRIRPRPPRLPRPRPRPNQNPRP was -0.178.

Consider RRIRHRPPRLPRPRPRPFFNPRP, for which the “shrunken log2 fold change” value is -0.632.

Regarding RRIRMRPPRLPRPRPRPHWFPRP, the “shrunken log2 fold change” value turned out to be 0.0685.

RRIRFRPPRLPRPRPRPCFRPRP: the “shrunken log2 fold change” value is -0.45.

In the case of RRIRIRPPRLPRPRPRPKAGPRP, the “shrunken log2 fold change” value was found to be 0.0458. The value for RRIRWRPPRLPRPRPRPETPPRP was 1.33.

For RRIRFRPPRLPRPRPRPPYEPRP, the “shrunken log2 fold change” value is -0.202. As for RRIRSRPPRLPRPRPRPPSLPRP, the “shrunken log2 fold change” value was -0.119. Turning to RRIRSRPPRLPRPRPRPDYSPRP, the “shrunken log2 fold change” value is -0.464. On to RRIRDRPPRLPRPRPRPVFWPRP, for which the “shrunken log2 fold change” value stood at 0.639. As for RRIRERPPRLPRPRPRPCDVPRP, the “shrunken log2 fold change” value was -0.017. With RRIRDRPPRLPRPRPRPMRPPRP, the “shrunken log2 fold change” value came to 0.804.

Regarding RRIRLRPPRLPRPRPRPNGLPRP, the “shrunken log2 fold change” value is -0.0171. Under RRIRFRPPRLPRPRPRPCQRPRP stands -0.124. Under RRIRMRPPRLPRPRPRPHAMPRP stands -0.0135. Turning to RRIRMRPPRLPRPRPRPISDPRP, the “shrunken log2 fold change” value stood at 0.0757. As to RRIRQRPPRLPRPRPRPIGFPRP, the “shrunken log2 fold change” value is -0.0702. The value for RRIRYRPPRLPRPRPRPPLEPRP was 0.119.

Consider RRIRSRPPRLPRPRPRPNHGPRP, for which the “shrunken log2 fold change” value is -0.4.

Regarding RRIRDRPPRLPRPRPRPPSDPRP, the “shrunken log2 fold change” value was found to be 0.251. Under RRIRNRPPRLPRPRPRPQKNPRP stands -0.318; under RRIRCRPPRLPRPRPRPYHLPRP, -0.0832.

As to RRIRTRPPRLPRPRPRPRVPPRP, the “shrunken log2 fold change” value was 0.105.
